Assay results published in US20040098763A1 (published 2004).

Legend:
[1] = molecular target: T1, Cdc2b (Cdc2bAt) in DB-vector (A. thaliana, UniProt P04386 1-147; P25859 1-309); assay: yeast two-hybrid (MaV203), X-Gal filter assay for β-galactosidase; AD construct x BD construct
T1 construct: Yeast two-hybrid DB/BD fusion
Procedure: (§1) ⁽¹⁾For each interaction test, yeast strain (MaV203) was transformed first with AD constructs listed in the first row, and then with BD constructs listed in the first column of the table following standard protocol. Three independent colonies from each interaction combination were used in X-Gal filter assay for β-galactosidase activity. The results of X-Gal assays were recorded at 2, 4, and 20 hours (overnight). Color intensity determined by visual inspection: “−” = none; “+” = weak; “++” = moderate; “+++” = strong. ⁽²⁾Faint color was visible after overnight incubation.

[2] = molecular target: T2, Cdc2a (Cdc2aAt) in DB-vector (Arabidopsis, UniProt P04386 1-147; P24100 1-294); assay: as above
T2 construct: Yeast two-hybrid DB/BD fusion; also called Arath;CDKA;1
Procedure: as §1

[3] = molecular target: T1, Cdc2b (Cdc2bAt) in DB-vector; assay: yeast two-hybrid, quantification of reporter activity; ICK1 in GAL4-AD vector, partner in DB vector
[4] = molecular target: T3, CycD3 (Arath; CycD3; 1) in DB-vector (Arabidopsis, UniProt P04386 1-147; P42753 1-376); assay: as above
T3 construct: Yeast two-hybrid DB/BD fusion; also called cyclin D3

[5] = molecular target: T4, ATMAP2 in DB-vector (A. thaliana); assay: as above
T4 construct: Yeast two-hybrid DB fusion; also called MAP kinase

[6] = molecular target: T2, Cdc2a (Cdc2aAt) in DB-vector; assay: as above
[7] = molecular target: T5, CycB2 (Arath; CycB2; 2) in DB-vector (A. thaliana, UniProt P04386 1-147; Q39070 1-429); assay: as above
T5 construct: Yeast two-hybrid DB fusion

[8] = molecular target: T6, vector alone (DB-vector without a gene) (UniProt P04386 1-147); assay: as above
T6 construct: also called Control

[9] = molecular target: T7, PCNAAt in DB-vector (Arabidopsis); assay: as above
T7 construct: Yeast two-hybrid DB/BD fusion; also called Arabidopsis PCNA

[10] = molecular target: T8, CycB1 (Arath; CycB1; 1) in DB-vector (A. thaliana, UniProt P04386 1-147; P30183 1-428); assay: as above
T8 construct: Yeast two-hybrid DB fusion; also called Cyc1At

[11] = molecular target: T9, CycA2 (Arath; CycA2; 2) in DB-vector (A. thaliana, UniProt P04386 1-147; Q147G5 1-436, limits assumed); assay: as above
T9 construct: Yeast two-hybrid DB fusion

[12] = molecular target: T10, CycD2 (Arath; CycD2; 1) in DB-vector (Arabidopsis, UniProt P04386 1-147; P42752 1-361); assay: as above
T10 construct: Yeast two-hybrid DB/BD fusion; also called cyclin D2

[13] = molecular target: T11, CycD1 (Arath; CycD1; 1) in DB-vector (A. thaliana, UniProt P04386 1-147; P42751 1-339); assay: as above
T11 construct: Yeast two-hybrid DB/BD fusion

[14] = molecular target: T10, CycD2 (Arath; CycD2; 1) in DB-vector; assay: yeast two-hybrid (MaV203), X-Gal filter assay for β-galactosidase; AD construct x BD construct
Procedure: as §1

[15] = molecular target: T11, CycD1 (Arath; CycD1; 1) in DB-vector; assay: as above
Procedure: as §1

B1: ICK2 (AD construct) (other, not shown: large carriers)
chain: MAAVRRRERDVVEENGVTTTTVKRRKMEEEVDLVESRIILSPCVQATNRGGIVARNSAGASETSVVIVRRRDSPPVEEQCQIEEEDSSVSCCSTSEEKSKRRIEFVDLEENNGDDRETETSWIYDDLNKSEESMNMDSSSVAVEDVESRRRLRKSLHETVKEAELEDFFQVAEKDLRNKLLECSMKYNFDFEKDEPLGGGRYEWVKLNP
**Q.** Does B1 bind [1]?
**A.** no binding

B2: ICDK of Chenopodium rubrum (AD construct) (other, not shown: large carriers)
chain: MAAAATPTSSPAKKIKKVSKSSYNIPQLRSRRKNLSAPENFAELETTPLEVAAVVEEEEVANCSSSEVITTARSDFPPSCCSSNYDQLSSSEPEVVKDDDGLGNRTADPEVESGEASSKQKESHRTEAREATKLDDQDYPATKSTVQIKMPSDSEIEEFFAVAEKDLQKRFSEKYNFDIVKDVPLKGRYDWVPINP
notes: Yeast two-hybrid AD fusion; also called ICKCr; Chenopodium ICDK
**Q.** What does the source list for B2?
**A.** binding result [1]: no binding; binding result [2]: no binding

B3: ICN2 (AD construct) (other, not shown: large carriers)
chain: KKKQRERAHKNPREKKMSERKRELAEEASSTSFSPLKKTKLNDSSDSSPDSHDVIVFAVSSSSVASSAALASDECSVTIGGEESDQSSSISSGCFTSESKEIAKNSSSFGVDLEDHQIETETETSTFITSNFRKETSPVSEGLGETTTEMESSSATKRKQPGVRKTPTAAEIEDLFSELESQDDKKKQFIEKYNFDIVNDEPLEGRYKWDRL
notes: also called ICK4
**Q.** Does B3 bind [1]?
**A.** no binding

**Q.** Does B3 bind [2]?
**A.** no binding

B4: ICN6 (AD construct) (other, not shown: large carriers)
chain: LSPEKTIMSLREMSETKPKRDSEYEGSNIKRMRLDDDDDVLRSPTRTLSSSSSSSLAYSVSDSGGFCSVALSEEEDDHLSSSISSGCSSSETNEIATRLPFSDLEAHEISETEISTLLTNNFRKQGISSSENLGETAEMDSATTEMRDQRKTEKKKKMEKSPTQAELDDFFSAAERYEQKRFTEKYNYDIVNDTPLEGRYQWVSLKP
notes: also called ICK5
**Q.** Which results are given for B4?
**A.** binding result [1]: no binding; binding result [2]: no binding

B5: ICK1 in a GAL4-activation domain vector (other, not shown: large carriers)
chain: MVRKYRKAKGIVEAGVSSTYMQLRSRRIVYVRSEKSSSVSVVGDNGVSSSCSGSNEYKKKELIHLEEEDKDGDTETSTYRRGTKRKLFENLREEEKEELSKSMENYSSEFESAVKESLDCCCSGRKTMEETVTAEEEEKAKLMTEMPTESEIEDFFVEAEKQLKEKFKKKYNFDFEKEKPLEGRYEWVKLE
notes: Yeast two-hybrid AD fusion; the GAL4 domain is placed first as in standard vectors
**Q.** Does B5 bind [1]?
**A.** no binding

**Q.** And the “Quantification (yeast two-hybrid reporter activity)” value (shortened to “Quantification”) [3]?
**A.** 0

**Q.** And the “Quantification” value [4]?
**A.** 22.7

**Q.** What about the “Quantification” value [5] of the same binder?
**A.** 0

**Q.** And the “Quantification” value [6]?
**A.** 2.65

**Q.** And the “Quantification” value [7]?
**A.** 0.05

**Q.** And the “Quantification” value [8]?
**A.** 0

**Q.** What about the “Quantification” value [9] of the same binder?
**A.** 0

**Q.** What about the “Quantification” value [10] of the same binder?
**A.** 0.06

**Q.** What about the “Quantification” value [11] of the same binder?
**A.** 0.03

**Q.** And the “Quantification” value [12]?
**A.** 14.8

**Q.** And the “Quantification” value [13]?
**A.** 3.13

B6: ICN7 (AD construct) (other, not shown: large carriers)
chain: MGKYMKKSKITGDISVMEVSKATAPSPGVRTRAAKTLALKRLNSSAADSALPNDSSCYLQLRSRRLEKPSSLIEPKQPPRVHRSGIKESGSRSRVDSVNSAPVAQSSNEDECFDNFVSVQVSCGENSLGFESRHSTRESTPCNFVEDMEIMVTPGSSTRSMCRATKEYTREQDNVIPTTSEMEEFFAYAEQQQQRLFMEKYNFDIVNDIPLSGRYEWVQVKP
notes: also called ICK6
**Q.** Does B6 bind [1]?
**A.** no binding

B7: ICN8 (AD construct) (other, not shown: large carriers)
chain: MGKYIRKSKIDGAGAGAGGGGGGGGGGESSIALMDVVSPSSSSSLGVLTRAKSLALQQQQQRCLLQKPSSPSSLPPTSASPNPPSKQKMKKKQQQMNDCGSYLQLRSRRLQKKPPIVVIRSTKRRKQQRRNETCGRNPNPRSNLDSIRGDGSRSDSVSESVVFGKDKDLISEINKDPTFGQNFFDLEEEHTQSFNRTTRESTPCSLIRRPEIMTTPGSSTKLNICVSESNQREDSLSRSHRRRPTTPEMDEFFSGAEEEQQKQFIEKYNFDPVNEQPLPGRFEWTKVDD
notes: Yeast two-hybrid AD fusion; also called ICK7
**Q.** Does B7 bind [1]?
**A.** no binding

B8: CKS1At (AD construct) (other, UniProt O23249 1-87, looked up, not shown: large carriers)
chain: MGQIQYSEKYFDDTFEYRHVVLPPEVAKLLPKNRLLSENEWRAIGVQQSRGWVHYAVHRPEPHIMLFRRPLNYQQQQENQAQNMLVK
**Q.** Does B8 bind [14]?
**A.** no binding

**Q.** Does B8 bind [15]?
**A.** no binding
